This is an account of results in patent US20260201064A1 (ISU ABXIS, published 2026).

To fix the notation:
T1: recombinant human ASM protein (human, UniProt P17405 47-630)
T1 construct: Recombinant human ASM in solution; also called acid sphingomyelinase (ASM) protein
T1 sequence: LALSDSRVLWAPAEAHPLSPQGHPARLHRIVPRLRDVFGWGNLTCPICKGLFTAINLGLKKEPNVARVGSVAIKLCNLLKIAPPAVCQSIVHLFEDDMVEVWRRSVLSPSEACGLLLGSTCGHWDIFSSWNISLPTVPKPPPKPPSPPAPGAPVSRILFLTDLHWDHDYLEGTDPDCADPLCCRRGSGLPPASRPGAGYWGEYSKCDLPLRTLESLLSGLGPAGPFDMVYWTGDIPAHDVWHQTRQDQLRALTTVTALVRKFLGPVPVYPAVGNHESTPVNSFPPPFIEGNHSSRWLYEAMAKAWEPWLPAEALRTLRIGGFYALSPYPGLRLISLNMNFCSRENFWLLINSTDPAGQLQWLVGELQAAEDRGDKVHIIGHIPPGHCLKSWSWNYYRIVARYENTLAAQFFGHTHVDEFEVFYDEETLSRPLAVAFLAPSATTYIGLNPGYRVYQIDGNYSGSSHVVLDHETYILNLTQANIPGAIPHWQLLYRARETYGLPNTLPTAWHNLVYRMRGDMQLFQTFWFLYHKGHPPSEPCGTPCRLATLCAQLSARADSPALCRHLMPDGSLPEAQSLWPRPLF

B1: #9104a-A1 (antibody, human IgG4 S228P, lambda, V domains shown)
VH: EVQLLESGGGLVQPGGSLRLSCAASGFTFSNYYMSWVRQAPGKGLEWVSGIYYGNGIPYYADSVKDRFTISRDNSKNTLYLQMNSLRAEDTAVYYCARDTPGFDYWGQGTLVTVSS
VL: QSVLTQPPSASGTPGQRVTISCTGSSSNIGNNAVNWYQQLPGTAPKLLIYYDMFRPGGVPDRFSGSKSGTSASLAISGLRSEDEADYYCGAWDYSLSAYVFGGGTKLTVLG
notes: VH of #9104v-H10 with VL of #9104v-L20; full-length IgG, lambda
B2: #9104a-A4 (antibody, human IgG4 S228P, lambda, V domains shown)
VH: EVQLLESGGGLVQPGGSLRLSCAASGFTFSNYYMSWVRRAPGKGLEWVSGIYYGSGTPYYAASVKGRFTISRDNSKNTLYLQMNSLRAEDTAVYYCARDTPGFDYWGQGTLVTVSS
VL: QSVLTQPPSASGTPGQRVTISCTGSSSNIGNNAVNWYQQLPGTAPKLLIYYDMFRPGGVPDRFSGSKSGTSASLAISGLRSEDEADYYCGAWDYSLSAYVFGGGTKLTVLG
notes: VH of #9104v-H17 with VL of #9104v-L20; full-length IgG, lambda
B3: #9104a-A7 (antibody, human IgG4 S228P, lambda, V domains shown)
VH: EVQLLESGGGLVQPGGSLRLSCAASGFTFSNYYMSWVRQAPGKGLEWVSGVYYGSGTPYYADSVKGRFTISRDNSKNTLYLQMNSLRAEDTAVYYCARDTPGFDYWGQGTLVTVSS
VL: QSVLTQPPSASGTPGQRVTISCTGSSSNIGNNAVNWYQQLPGTAPKLLIYYDMFRPGGVPDRFSGSKSGTSASLAISGLRSEDEADYYCGAWDYSLSAYVFGGGTKLTVLG
notes: VH of #9104v-H31 with VL of #9104v-L20; full-length IgG, lambda
B4: #9104a-A2 (antibody, human IgG4 S228P, lambda, V domains shown)
VH: EVQLLESGGGLVQPGGSLRLSCAASGFTFSNYYMSWVRQAPGKGLEWVSGIYYGSGIPYYADSVKERFTISRDNSKNTLYLQMNSLRAEDTAVYYCARDTPGFDYWGQGTLVTVSS
VL: QSVLTQPPSASGTPGQRVTISCTGSSSNIGNNAVNWYQQLPGTAPKLLIYYDMFRPGGVPDRFSGSKSGTSASLAISGLRSEDEADYYCGAWDYSLSAYVFGGGTKLTVLG
notes: VH of #9104v-H11 with VL of #9104v-L20; full-length IgG, lambda
B5: #9104a-B7 (antibody, human IgG4 S228P, lambda, V domains shown)
VH: EVQLLESGGGLVQPGGSLRLSCAASGFTFSNYYMSWVRQAPGKGLEWVSGVYYGSGTPYYADSVKGRFTISRDNSKNTLYLQMNSLRAEDTAVYYCARDTPGFDYWGQGTLVTVSS
VL: QSVLTQPPSASGTPGQRVTISCTGSSSNIGNNAVNWYQQLPGTAPKLLIYYDMFRPNGVPDRFSGSKSGTSASLAISGLRSEDEADYYCGAWDYSLSAYVFGGGTKLTVLG
notes: VH of #9104v-H31 with VL of #9104v-L21; full-length IgG, lambda
B6: #9104a-A8 (antibody, human IgG4 S228P, lambda, V domains shown)
VH: EVQLLESGGGLVQPGGSLRLSCAASGFTFSNYYMSWVRQAPGKGLEWVSGVYYPSGNPYYADSVKGRFTISRDNSKNTLYLQMNSLRAEDTAVYYCARDTPGFDYWGQGTLVTVSS
VL: QSVLTQPPSASGTPGQRVTISCTGSSSNIGNNAVNWYQQLPGTAPKLLIYYDMFRPGGVPDRFSGSKSGTSASLAISGLRSEDEADYYCGAWDYSLSAYVFGGGTKLTVLG
notes: VH of #9104v-H33 with VL of #9104v-L20; full-length IgG, lambda
B7: #9104a-A5 (antibody, human IgG4 S228P, lambda, V domains shown)
VH: EVQLLESGGGLVQPGGSLRLSCAASGFTFSNYYMSWVRQAPGKGLEWVSGIYYGSGVPYYADSVKGRFTISRDNSKNTLYLQMNSLRAEDTAVYYCARDTPGFDYWGQGTLVTVSS
VL: QSVLTQPPSASGTPGQRVTISCTGSSSNIGNNAVNWYQQLPGTAPKLLIYYDMFRPGGVPDRFSGSKSGTSASLAISGLRSEDEADYYCGAWDYSLSAYVFGGGTKLTVLG
notes: VH of #9104v-H19 with VL of #9104v-L20; full-length IgG, lambda
B8: #9104a-B5 (antibody, human IgG4 S228P, lambda, V domains shown)
VH: EVQLLESGGGLVQPGGSLRLSCAASGFTFSNYYMSWVRQAPGKGLEWVSGIYYGSGVPYYADSVKGRFTISRDNSKNTLYLQMNSLRAEDTAVYYCARDTPGFDYWGQGTLVTVSS
VL: QSVLTQPPSASGTPGQRVTISCTGSSSNIGNNAVNWYQQLPGTAPKLLIYYDMFRPNGVPDRFSGSKSGTSASLAISGLRSEDEADYYCGAWDYSLSAYVFGGGTKLTVLG
notes: VH of #9104v-H19 with VL of #9104v-L21; full-length IgG, lambda
B9: #9104a-B1 (antibody, human IgG4 S228P, lambda, V domains shown)
VH: EVQLLESGGGLVQPGGSLRLSCAASGFTFSNYYMSWVRQAPGKGLEWVSGIYYGNGIPYYADSVKDRFTISRDNSKNTLYLQMNSLRAEDTAVYYCARDTPGFDYWGQGTLVTVSS
VL: QSVLTQPPSASGTPGQRVTISCTGSSSNIGNNAVNWYQQLPGTAPKLLIYYDMFRPNGVPDRFSGSKSGTSASLAISGLRSEDEADYYCGAWDYSLSAYVFGGGTKLTVLG
notes: VH of #9104v-H10 with VL of #9104v-L21; full-length IgG, lambda
B10: #9104a-A3 (antibody, human IgG4 S228P, lambda, V domains shown)
VH: EVQLLESGGGLVQPGGSLRLSCAASGFTFSNYYMSWVRQAPGKGLEWVSGIYYGSGIPYYANSVKGRFTISRDNSKNTLYLQMNSLRAEDTAVYYCARDTPGFDYWGQGTLVTVSS
VL: QSVLTQPPSASGTPGQRVTISCTGSSSNIGNNAVNWYQQLPGTAPKLLIYYDMFRPGGVPDRFSGSKSGTSASLAISGLRSEDEADYYCGAWDYSLSAYVFGGGTKLTVLG
notes: VH of #9104v-H13 with VL of #9104v-L20; full-length IgG, lambda
B11: #9104a-B6 (antibody, human IgG4 S228P, lambda, V domains shown)
VH: EVQLLESGGGLVQPGGSLRLSCAASGFTFSNYYMSWVRQAPGKGLEWVSGTYYDSGYVYYADSVKGRFTISRDNSKNTLYLQMNSLRAEDTAVYYCARDTPGFDYWGQGTLVTVSS
VL: QSVLTQPPSASGTPGQRVTISCTGSSSNIGNNAVNWYQQLPGTAPKLLIYYDMFRPNGVPDRFSGSKSGTSASLAISGLRSEDEADYYCGAWDYSLSAYVFGGGTKLTVLG
notes: VH of #9104v-H27 with VL of #9104v-L21; full-length IgG, lambda
B12: #9104a-B3 (antibody, human IgG4 S228P, lambda, V domains shown)
VH: EVQLLESGGGLVQPGGSLRLSCAASGFTFSNYYMSWVRQAPGKGLEWVSGIYYGSGIPYYANSVKGRFTISRDNSKNTLYLQMNSLRAEDTAVYYCARDTPGFDYWGQGTLVTVSS
VL: QSVLTQPPSASGTPGQRVTISCTGSSSNIGNNAVNWYQQLPGTAPKLLIYYDMFRPNGVPDRFSGSKSGTSASLAISGLRSEDEADYYCGAWDYSLSAYVFGGGTKLTVLG
notes: VH of #9104v-H13 with VL of #9104v-L21; full-length IgG, lambda
B13: #9104a-A6 (antibody, human IgG4 S228P, lambda, V domains shown)
VH: EVQLLESGGGLVQPGGSLRLSCAASGFTFSNYYMSWVRQAPGKGLEWVSGTYYDSGYVYYADSVKGRFTISRDNSKNTLYLQMNSLRAEDTAVYYCARDTPGFDYWGQGTLVTVSS
VL: QSVLTQPPSASGTPGQRVTISCTGSSSNIGNNAVNWYQQLPGTAPKLLIYYDMFRPGGVPDRFSGSKSGTSASLAISGLRSEDEADYYCGAWDYSLSAYVFGGGTKLTVLG
notes: VH of #9104v-H27 with VL of #9104v-L20; full-length IgG, lambda
B14: #9104a-B2 (antibody, human IgG4 S228P, lambda, V domains shown)
VH: EVQLLESGGGLVQPGGSLRLSCAASGFTFSNYYMSWVRQAPGKGLEWVSGIYYGSGIPYYADSVKERFTISRDNSKNTLYLQMNSLRAEDTAVYYCARDTPGFDYWGQGTLVTVSS
VL: QSVLTQPPSASGTPGQRVTISCTGSSSNIGNNAVNWYQQLPGTAPKLLIYYDMFRPNGVPDRFSGSKSGTSASLAISGLRSEDEADYYCGAWDYSLSAYVFGGGTKLTVLG
notes: VH of #9104v-H11 with VL of #9104v-L21; full-length IgG, lambda
B15: #9104a-B4 (antibody, human IgG4 S228P, lambda, V domains shown)
VH: EVQLLESGGGLVQPGGSLRLSCAASGFTFSNYYMSWVRRAPGKGLEWVSGIYYGSGTPYYAASVKGRFTISRDNSKNTLYLQMNSLRAEDTAVYYCARDTPGFDYWGQGTLVTVSS
VL: QSVLTQPPSASGTPGQRVTISCTGSSSNIGNNAVNWYQQLPGTAPKLLIYYDMFRPNGVPDRFSGSKSGTSASLAISGLRSEDEADYYCGAWDYSLSAYVFGGGTKLTVLG
notes: VH of #9104v-H17 with VL of #9104v-L21; full-length IgG, lambda

This assay has as its target T1, recombinant human ASM protein. Nature of the assay: BLI (Octet), antibody on AHC sensor. Here is the method:
The binding affinity, to the ASM protein, of the produced antibodies specifically binding to the ASM protein and the interactive dynamics therebetween were measured using an Octet® QK384 system (Pall Life Sciences).
First, an antibody specifically binding to the ASM protein produced in Example 1 was captured using an anti-human IgG Fc capture (AHC) biosensor, and 1.25, 2.5, 5, 10, or 20 nM recombinant human ASM protein solution was added thereto. […] The association constant (Kₐ), dissociation constant (Kd), and equilibrium dissociation constant (KD) for each antibody were determined using Octet® analysis software (Pall Life® Sciences). As a result, the binding affinities, to the human ASM protein, of the antibodies with mutations in the heavy chain CDR regions of the antibody #9104 as depicted in Table 1 are shown in Table 5, and the binding affinities, to the human ASM protein, of the antibodies with mutations of the light chain CDR regions in the antibody #9104 as depicted in Table 2 are shown in Table 6.
After the small-scale expression in the ExpiCHO cell line as described above, the binding affinity to the human ASM protein was investigated as described in Experimental Example 1. Specifically, the antibody produced by a combination of #9104v-H33 heavy chain variable region and #9104v-L23 light chain variable region was not expressed and thus excluded in the analysis of binding affinity to ASM protein.
For orientation: BLI is a label-free optical method that tracks binding on a fibre tip over time.
Take B1: the Kd is 0.0518 nM, the dissociation rate constant (koff) was found to be 1.14e-05 s⁻¹ and the kon is 220000 M⁻¹ s⁻¹.
For B2 the same measures were 0.162 nM, 3.54e-05 s⁻¹ and 219000 M⁻¹ s⁻¹.
For B3 the same measures were 0.0354 nM, 8.13e-06 s⁻¹ and 230000 M⁻¹ s⁻¹.
In the same order, the values of B4 are 0.0961 nM, 1.98e-05 s⁻¹ and 206000 M⁻¹ s⁻¹.
Take B5: the Kd came to 0.163 nM, the koff came to 4.07e-05 s⁻¹ and the kon amounted to 250000 M⁻¹ s⁻¹.
For B6 the same measures were 0.237 nM, 4.51e-05 s⁻¹ and 191000 M⁻¹ s⁻¹.
In the same order, the values of B7 are 0.16 nM, 3.93e-05 s⁻¹ and 246000 M⁻¹ s⁻¹.
As to B8, the Kd was under 0.001 nM, the koff was under 1e-07 s⁻¹ and the association rate constant (kon) came to 243000 M⁻¹ s⁻¹.
Regarding B9, the Kd was determined as 0.137 nM, the koff is 3.45e-05 s⁻¹ and the kon amounted to 253000 M⁻¹ s⁻¹.
Turning to B10, the Kd was 0.0277 nM, the koff worked out at 5.48e-06 s⁻¹ and the association rate constant (kon) came out at 198000 M⁻¹ s⁻¹.
For B11 the same measures were 1.14 nM, 9.41e-05 s⁻¹ and 82900 M⁻¹ s⁻¹.
With B12, the Kd was 0.0351 nM, the koff was determined as 8.23e-06 s⁻¹ and the kon was found to be 234000 M⁻¹ s⁻¹.
Regarding B13, the Kd is 0.768 nM, the koff is 6.96e-05 s⁻¹ and the kon was determined as 90600 M⁻¹ s⁻¹.
For B14 the same measures were 0.114 nM, 3.03e-05 s⁻¹ and 266000 M⁻¹ s⁻¹.
For B15 the same measures were 0.153 nM, 3.74e-05 s⁻¹ and 245000 M⁻¹ s⁻¹.

The term Kd denotes a measure of binding affinity in units of concentration. For orientation: koff means the first-order rate constant of dissociation. As usually defined, the kon is the second-order rate constant of association.
